Measured values published in paper PMC9122593.
Read-outs that look alike come from different tables or passages of the source.

Key:
wtCas12a [1] = target: T1, wtCas12a (Francisella novicida, UniProt A0Q7Q2 1-1300); assay: Mg2+
wtCas12a [2] = target: T1, wtCas12a; assay: Mg2+; remark: listed apart in the source

T1 sequence (A0Q7Q2 whole entry): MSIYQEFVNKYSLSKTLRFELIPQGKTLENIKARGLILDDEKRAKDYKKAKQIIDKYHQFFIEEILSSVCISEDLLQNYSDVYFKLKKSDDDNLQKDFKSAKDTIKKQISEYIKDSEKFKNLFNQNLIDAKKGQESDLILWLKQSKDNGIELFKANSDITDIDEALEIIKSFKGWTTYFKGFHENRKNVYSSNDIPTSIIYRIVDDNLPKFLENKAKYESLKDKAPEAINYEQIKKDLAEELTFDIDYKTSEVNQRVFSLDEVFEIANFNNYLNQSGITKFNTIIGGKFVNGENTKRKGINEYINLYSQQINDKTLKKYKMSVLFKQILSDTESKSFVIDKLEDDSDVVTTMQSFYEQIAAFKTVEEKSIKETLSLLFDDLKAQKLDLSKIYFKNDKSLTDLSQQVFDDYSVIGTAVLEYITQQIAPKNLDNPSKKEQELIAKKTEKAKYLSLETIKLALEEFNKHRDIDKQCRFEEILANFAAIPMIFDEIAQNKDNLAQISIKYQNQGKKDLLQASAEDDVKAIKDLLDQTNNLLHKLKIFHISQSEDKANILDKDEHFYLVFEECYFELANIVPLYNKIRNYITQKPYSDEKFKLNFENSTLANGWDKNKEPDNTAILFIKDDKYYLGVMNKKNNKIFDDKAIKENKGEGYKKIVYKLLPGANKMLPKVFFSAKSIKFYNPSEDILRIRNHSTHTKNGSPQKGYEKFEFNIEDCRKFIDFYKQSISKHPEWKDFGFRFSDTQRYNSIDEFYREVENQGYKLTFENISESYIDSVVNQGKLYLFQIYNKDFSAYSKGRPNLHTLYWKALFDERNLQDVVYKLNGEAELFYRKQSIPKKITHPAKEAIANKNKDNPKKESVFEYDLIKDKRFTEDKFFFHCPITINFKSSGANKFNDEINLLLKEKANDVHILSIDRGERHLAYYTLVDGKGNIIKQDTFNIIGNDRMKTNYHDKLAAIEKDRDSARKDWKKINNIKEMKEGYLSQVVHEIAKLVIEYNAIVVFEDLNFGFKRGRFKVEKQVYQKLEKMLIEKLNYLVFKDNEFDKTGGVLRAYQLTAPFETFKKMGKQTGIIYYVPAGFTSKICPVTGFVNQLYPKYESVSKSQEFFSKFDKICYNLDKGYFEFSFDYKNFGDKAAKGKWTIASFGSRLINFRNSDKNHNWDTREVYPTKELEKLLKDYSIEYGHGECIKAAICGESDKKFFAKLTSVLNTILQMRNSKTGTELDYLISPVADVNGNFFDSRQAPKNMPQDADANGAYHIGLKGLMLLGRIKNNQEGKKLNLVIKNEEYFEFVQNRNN

Row | Binder | binding result (wtCas12a [1]) | binding result (wtCas12a [2])
1 | AAUUUCUACUGUUGUAGAUUGUAAAGAAACAGUAAGAUAAU (mixed) [crRNA-1 + lambda ssDNA (T-strand), no activator] | no binding | 
2 | crRNA-1/lambda-activator + lambda ssDNA (T-strand) (mixed) RNA: AAUUUCUACUGUUGUAGAUUGUAAAGAAACAGUAAGAUAAU DNA: CATCGGGTTGAGTATTATCTTACTGTTTCTTTACATAAAC |  | binds
